# Measured values taken from patent CN111995674A (INST MILITARY MEDICINE ACADEMY MILITARY SCIENCES PLA, dated 2020).
# Target: T1, 肉毒毒素AHC片段 (UniProt P0DPI1 873-1296)
# T1 construct: domain: AHC片段
# Experiment: ELISA, coated antigen, anti-human IgG-HRP
# T1 sequence (P0DPI1 873-1296 limits assumed): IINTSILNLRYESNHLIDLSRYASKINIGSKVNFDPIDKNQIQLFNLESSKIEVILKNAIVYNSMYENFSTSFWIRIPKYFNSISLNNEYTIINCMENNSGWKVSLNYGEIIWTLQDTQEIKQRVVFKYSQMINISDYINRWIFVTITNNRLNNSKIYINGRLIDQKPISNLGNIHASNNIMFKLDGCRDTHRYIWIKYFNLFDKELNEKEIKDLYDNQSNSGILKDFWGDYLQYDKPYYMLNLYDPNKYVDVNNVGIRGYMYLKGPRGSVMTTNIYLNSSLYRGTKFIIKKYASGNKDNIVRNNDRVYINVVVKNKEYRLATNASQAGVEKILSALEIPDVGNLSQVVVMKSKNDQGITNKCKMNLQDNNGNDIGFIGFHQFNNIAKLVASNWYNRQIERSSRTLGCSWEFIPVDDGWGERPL
binder,measurement,value
"人鼠嵌合全抗体mhC3 (antibody, V domains shown, also called mhC3抗体; C3 (图5、图6)) VH: EVQLVESGGDLVKPGGSLKLSCAASGFTFNTYAMNWVRQTPGKGLEWVARIRSKSNNYATYYADSVKDRFTISRDDSQSMLYLQMNNLKTEDTAMYYCVTPYYGNYADWFTYWGQGTSVTVSS VL: not shown",binding result,no binding (tested: 300μg/mL)
